The source of these data is PMC8012654.

The test deals with recombinant GST-αII spectrin peptide, codons 891-1231 (repeats 9 and 10), R1098Q (mouse) (UniProt P16546). Briefly: SPR; BIAcore T200, CM5 chip; GST-spectrin peptides captured by their GST tag on amine-coupled goat anti-GST antibody to 1,000 RU; CaM 20 nM to 500 nM flowed in HBS running buffer with 2 mM CaCl2; 25 °C, 20 µl/min; global fit, 1:1 Langmuir model with mass transport step; KD = kd/ka.

With “purified bovine brain calmodulin (CaM) (from UniProt P62157 1-149) (natural protein)”, the reduction in affinity for CaM relative to the WT peptide worked out at 19%.
